Assay results as given in the supplement of paper PMC9112550, “Optimization of the antimicrobial peptide Bac7 by deep mutational scanning” (BMC Biology, 2022).

The sequences below were run on Escherichia coli TOP10 (assay: shrunken log2 fold change of peptide-encoding DNA abundance (4.5 h post-induction vs induction); higher = less antimicrobial activity (less host growth inhibition)). Details: time post-induction: 4.5 h; library: site-saturation at positions 5, 18, 19, 20.
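Further: peptides expressed intracellularly from a pBAD plasmid library in pooled LB shake-flask culture, induced with 0.3% L-arabinose, DNA abundance read by NGS, three biological replicates, DESeq2 with apeglm shrinkage.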

| Sequence | shrunken log2 fold change |
| --- | --- |
| RRIRERPPRLPRPRPRPTPYPRP | -0.389 |
| RRIRERPPRLPRPRPRPTQFPRP | -0.118 |
| RRIRERPPRLPRPRPRPTRKPRP | 0.0197 |
| RRIRERPPRLPRPRPRPTRMPRP | 0.084 |
| RRIRERPPRLPRPRPRPTRWPRP | 0.353 |
| RRIRERPPRLPRPRPRPTSGPRP | 0.0416 |
| RRIRERPPRLPRPRPRPTSRPRP | 0.249 |
| RRIRERPPRLPRPRPRPTVCPRP | 0.141 |
| RRIRERPPRLPRPRPRPTVHPRP | -0.42 |
| RRIRERPPRLPRPRPRPTVVPRP | -0.188 |
| RRIRERPPRLPRPRPRPTWSPRP | -0.268 |
| RRIRERPPRLPRPRPRPTWTPRP | -0.07 |
| RRIRERPPRLPRPRPRPVCEPRP | 0.162 |
| RRIRERPPRLPRPRPRPVCPPRP | -0.162 |
| RRIRERPPRLPRPRPRPVDPPRP | -0.342 |
| RRIRERPPRLPRPRPRPVDSPRP | -0.0113 |
| RRIRERPPRLPRPRPRPVFGPRP | -0.0574 |
| RRIRERPPRLPRPRPRPVGSPRP | -0.174 |
| RRIRERPPRLPRPRPRPVIDPRP | -0.0264 |
| RRIRERPPRLPRPRPRPVIEPRP | -0.201 |
| RRIRERPPRLPRPRPRPVIVPRP | -0.373 |
| RRIRERPPRLPRPRPRPVLEPRP | -0.0875 |
| RRIRERPPRLPRPRPRPVLRPRP | -0.156 |
| RRIRERPPRLPRPRPRPVLYPRP | -0.00668 |
| RRIRERPPRLPRPRPRPVNHPRP | -0.229 |

| Sequence | shrunken log2 fold change |
| --- | --- |
| RRIRERPPRLPRPRPRPVNVPRP | -0.531 |
| RRIRERPPRLPRPRPRPVPSPRP | -0.0655 |
| RRIRERPPRLPRPRPRPVQIPRP | 0.27 |
| RRIRERPPRLPRPRPRPVRKPRP | -0.0457 |
| RRIRERPPRLPRPRPRPVRRPRP | -0.172 |
| RRIRERPPRLPRPRPRPVTHPRP | -0.194 |
| RRIRERPPRLPRPRPRPVVFPRP | -0.0884 |
| RRIRERPPRLPRPRPRPVVHPRP | -0.0247 |
| RRIRERPPRLPRPRPRPVVPPRP | -0.158 |
| RRIRERPPRLPRPRPRPVWNPRP | -0.165 |
| RRIRERPPRLPRPRPRPVYEPRP | -0.445 |
| RRIRERPPRLPRPRPRPWCEPRP | -0.349 |
| RRIRERPPRLPRPRPRPWFKPRP | -0.0858 |
| RRIRERPPRLPRPRPRPWFSPRP | -0.336 |
| RRIRERPPRLPRPRPRPWGSPRP | -0.0459 |
| RRIRERPPRLPRPRPRPWHKPRP | -0.236 |
| RRIRERPPRLPRPRPRPWIIPRP | -0.269 |
| RRIRERPPRLPRPRPRPWIQPRP | -0.0122 |
| RRIRERPPRLPRPRPRPWKVPRP | -0.0109 |
| RRIRERPPRLPRPRPRPWMHPRP | -0.126 |
| RRIRERPPRLPRPRPRPWNCPRP | -0.327 |
| RRIRERPPRLPRPRPRPWNQPRP | -0.124 |
| RRIRERPPRLPRPRPRPWPYPRP | 0.00489 |
| RRIRERPPRLPRPRPRPWQLPRP | -0.072 |
| RRIRERPPRLPRPRPRPWRMPRP | -0.13 |

| Sequence | shrunken log2 fold change |
| --- | --- |
| RRIRERPPRLPRPRPRPWRVPRP | -0.0327 |
| RRIRERPPRLPRPRPRPWSFPRP | -0.0191 |
| RRIRERPPRLPRPRPRPWSQPRP | -0.0521 |
| RRIRERPPRLPRPRPRPWVGPRP | 0.0249 |
| RRIRERPPRLPRPRPRPWVPPRP | 0.0883 |
| RRIRERPPRLPRPRPRPWVWPRP | 0.0922 |
| RRIRERPPRLPRPRPRPWWVPRP | -0.056 |
| RRIRERPPRLPRPRPRPYAHPRP | -0.0128 |
| RRIRERPPRLPRPRPRPYCRPRP | -0.394 |
| RRIRERPPRLPRPRPRPYDMPRP | -0.222 |
| RRIRERPPRLPRPRPRPYEEPRP | -0.636 |
| RRIRERPPRLPRPRPRPYENPRP | 0.0288 |
| RRIRERPPRLPRPRPRPYGQPRP | -0.315 |
| RRIRERPPRLPRPRPRPYHTPRP | 0.0711 |
| RRIRERPPRLPRPRPRPYIAPRP | -0.946 |
| RRIRERPPRLPRPRPRPYINPRP | -0.248 |
| RRIRERPPRLPRPRPRPYIYPRP | -0.254 |
| RRIRERPPRLPRPRPRPYKEPRP | -0.117 |
| RRIRERPPRLPRPRPRPYLRPRP | -0.319 |
| RRIRERPPRLPRPRPRPYMIPRP | -0.259 |
| RRIRERPPRLPRPRPRPYNEPRP | -0.178 |
| RRIRERPPRLPRPRPRPYNPPRP | 0.00932 |
| RRIRERPPRLPRPRPRPYNSPRP | -0.0287 |
| RRIRERPPRLPRPRPRPYQTPRP | -0.135 |
| RRIRERPPRLPRPRPRPYREPRP | -0.00865 |

| Sequence | shrunken log2 fold change |
| --- | --- |
| RRIRERPPRLPRPRPRPYRGPRP | -0.00417 |
| RRIRERPPRLPRPRPRPYRSPRP | -1.42 |
| RRIRERPPRLPRPRPRPYSKPRP | -0.464 |
| RRIRERPPRLPRPRPRPYTLPRP | -0.338 |
| RRIRERPPRLPRPRPRPYTSPRP | -0.141 |
| RRIRERPPRLPRPRPRPYVCPRP | -1.6 |
| RRIRERPPRLPRPRPRPYWFPRP | -1.02 |
| RRIRERPPRLPRPRPRPYWTPRP | -0.0954 |
| RRIRERPPRLPRPRPRPYWYPRP | -1.83 |
| RRIRERPPRLPRPRPRPYYFPRP | -1.04 |
| RRIRFRPPRLPRPRPRPADKPRP | 0.0852 |
| RRIRFRPPRLPRPRPRPAEDPRP | 0.0423 |
| RRIRFRPPRLPRPRPRPAELPRP | 0.281 |
| RRIRFRPPRLPRPRPRPAEQPRP | 1.16 |
| RRIRFRPPRLPRPRPRPAGDPRP | 0.378 |
| RRIRFRPPRLPRPRPRPAGFPRP | 0.0553 |
| RRIRFRPPRLPRPRPRPAGYPRP | 0.00702 |
| RRIRFRPPRLPRPRPRPAHPPRP | 0.267 |
| RRIRFRPPRLPRPRPRPAHQPRP | -0.15 |
| RRIRFRPPRLPRPRPRPAHSPRP | -0.156 |
| RRIRFRPPRLPRPRPRPAKEPRP | 0.0148 |
| RRIRFRPPRLPRPRPRPAKMPRP | 0.207 |
| RRIRFRPPRLPRPRPRPALSPRP | 0.319 |
| RRIRFRPPRLPRPRPRPALYPRP | -0.155 |
| RRIRFRPPRLPRPRPRPAMMPRP | 0.0488 |

| Sequence | shrunken log2 fold change |
| --- | --- |
| RRIRFRPPRLPRPRPRPAMQPRP | 0.109 |
| RRIRFRPPRLPRPRPRPANLPRP | -0.296 |
| RRIRFRPPRLPRPRPRPAPGPRP | 0.668 |
| RRIRFRPPRLPRPRPRPAPRPRP | 0.84 |
| RRIRFRPPRLPRPRPRPAPVPRP | 0.323 |
| RRIRFRPPRLPRPRPRPAQDPRP | 0.381 |
| RRIRFRPPRLPRPRPRPARGPRP | 0.624 |
| RRIRFRPPRLPRPRPRPARLPRP | 0.175 |
| RRIRFRPPRLPRPRPRPATQPRP | -0.00992 |
| RRIRFRPPRLPRPRPRPAVKPRP | -0.137 |
| RRIRFRPPRLPRPRPRPAVVPRP | -0.231 |
| RRIRFRPPRLPRPRPRPAYQPRP | -0.135 |
| RRIRFRPPRLPRPRPRPAYTPRP | -0.876 |
| RRIRFRPPRLPRPRPRPCCTPRP | -0.337 |
| RRIRFRPPRLPRPRPRPCDGPRP | -0.0604 |
| RRIRFRPPRLPRPRPRPCFPPRP | -0.407 |
| RRIRFRPPRLPRPRPRPCFQPRP | -0.227 |
| RRIRFRPPRLPRPRPRPCGWPRP | 0.42 |
| RRIRFRPPRLPRPRPRPCGYPRP | -0.0542 |
| RRIRFRPPRLPRPRPRPCHMPRP | -0.285 |
| RRIRFRPPRLPRPRPRPCHQPRP | -0.188 |
| RRIRFRPPRLPRPRPRPCIPPRP | 0.0633 |
| RRIRFRPPRLPRPRPRPCKYPRP | -0.373 |
| RRIRFRPPRLPRPRPRPCLDPRP | -0.35 |
| RRIRFRPPRLPRPRPRPCMMPRP | -0.0025 |

| Sequence | shrunken log2 fold change |
| --- | --- |
| RRIRFRPPRLPRPRPRPCMTPRP | 0.162 |
| RRIRFRPPRLPRPRPRPCNEPRP | -0.0116 |
| RRIRFRPPRLPRPRPRPCNHPRP | -0.41 |
| RRIRFRPPRLPRPRPRPCNQPRP | -0.649 |
| RRIRFRPPRLPRPRPRPCNYPRP | -0.72 |
| RRIRFRPPRLPRPRPRPCQEPRP | 0.176 |
| RRIRFRPPRLPRPRPRPCREPRP | -0.0892 |
| RRIRFRPPRLPRPRPRPCSHPRP | -0.336 |
| RRIRFRPPRLPRPRPRPCSSPRP | 0.0898 |
| RRIRFRPPRLPRPRPRPCYMPRP | 1.54 |
| RRIRFRPPRLPRPRPRPCYSPRP | 0.019 |
| RRIRFRPPRLPRPRPRPDAFPRP | -0.491 |
| RRIRFRPPRLPRPRPRPDCEPRP | 0.175 |
| RRIRFRPPRLPRPRPRPDCMPRP | -0.286 |
| RRIRFRPPRLPRPRPRPDDTPRP | 0.0516 |
| RRIRFRPPRLPRPRPRPDEKPRP | -0.0935 |
| RRIRFRPPRLPRPRPRPDFCPRP | -0.0235 |
| RRIRFRPPRLPRPRPRPDGVPRP | -0.14 |
| RRIRFRPPRLPRPRPRPDHAPRP | -0.102 |
| RRIRFRPPRLPRPRPRPDHLPRP | -0.00942 |
| RRIRFRPPRLPRPRPRPDIRPRP | 0.0306 |
| RRIRFRPPRLPRPRPRPDIWPRP | -0.273 |
| RRIRFRPPRLPRPRPRPDLWPRP | 0.187 |
| RRIRFRPPRLPRPRPRPDMSPRP | -0.0802 |
| RRIRFRPPRLPRPRPRPDPAPRP | 0.266 |
